In patent US11499200B2, “Methods for determining resistance or susceptibility to HIV entry inhibitors” (Monogram Biosciences, Inc., priority 2005, dated 2022):

Columns and labels:
[1] = system: HIV-1 particles pseudotyped with patient-derived or chimeric envelope proteins (gp160); test: Cell based HIV-1 entry assay (pseudotyped virus, luciferase): entry inhibitor susceptibility; conditions: FIG. 6; compared with sensitivity to B4
Description: In this embodiment, drug susceptibility, co-receptor tropism and virus neutralization testing are performed by co-transfecting a host cell with pHIVenv and pHIVlucΔU3. The host cell produces HIV particles that are pseudo-typed with HIV envelope sequences derived from the test virus or subject sample. Virus particles are collected (˜48 h) after transfection and are used to infect target cells that express HIV receptors (e.g. CD4) and co-receptors (e.g. CXCR4, CCR5). After infection (˜72 h) the target cells are lysed and luciferase activity is measured. HIV must complete one round of replication to successfully infect the target host cell and produce luciferase activity. […]
Drug susceptibility testing was performed using pHIVenv and pHIVluc or pHIVlucΔU3. […] After infection (˜72 h) the target cells are lysed and luciferase activity is measured. […] The amount of luciferase activity detected in the infected cells is used as a direct measure of “infectivity” (FIGS. 1 and 2). […] Drug susceptibility is assessed by comparing the infectivity in the absence of drug to infectivity in the presence of drug. Relative drug susceptibility can be quantified by comparing the susceptibility of the “test” virus to the susceptibility of a well-characterized reference virus (wildtype) derived from a molecular clone of HIV-1, for example NL4-3 or HXB2. […]

[2] = target: clone 3 of FIG. 6 envelope protein (clone 11 of FIGS. 7-9), with L261S (HIV-1); test: cell-based or functional assay
[3] = target: clone 3 of FIG. 6 envelope protein with the wild-type residue at position 261 (HIV-1); test: cell-based or functional assay

Row | Substance | sensitivity to entry inhibitor, sixteen clones of one patient [1] | IC50 of PRO542, log-sigmoid inhibition curves of the entry assay [2] [µg/ml] | IC50 of PRO542, log-sigmoid inhibition curves of the entry assay [3] [µg/ml]
1 | TNX-355: HIV entry inhibitor under investigation (Tanox Inc.), listed as CD4 binding site entry inhibitor | varied inversely to sensitivity to B4 |  | 
2 | PRO542 (from UniProt P01730 26-204) (receptor) |  | 11 | 0.9
